Legend:
[1] = system: PIN-XTEN-dCas9-2xNLS (Streptococcus pyogenes); assay: cell_activity; conditions: no PAMmer, Northern dot blot; full-length Cas9 gave >95% loss in FIG. 8C
[2] = system: PIN-dCas9 deltaHNH del775-909 (Streptococcus pyogenes); assay: cell_activity; conditions: COSM6, Northern blot

## CUG repeat-targeting sgRNA ; CUG repeat RNA
[1]
  activity (% RNA remaining): 35
[2]
  activity: > 95 % RNA loss
